Where “and” joins values, the source holds several entries; their conditions need not be identical. Equal entries are not always repeated.

Assay [1] concerns the target T1, human IL17RB expressed on HEK293 cells (Homo sapiens, UniProt Q9NRM6).
T1 construct: transfected either with full-length human or rhesus monkey IL-17RB (SinoBiological, Beijing, China); host or cells: HEK293
T1 sequence (Q9NRM6 18-502): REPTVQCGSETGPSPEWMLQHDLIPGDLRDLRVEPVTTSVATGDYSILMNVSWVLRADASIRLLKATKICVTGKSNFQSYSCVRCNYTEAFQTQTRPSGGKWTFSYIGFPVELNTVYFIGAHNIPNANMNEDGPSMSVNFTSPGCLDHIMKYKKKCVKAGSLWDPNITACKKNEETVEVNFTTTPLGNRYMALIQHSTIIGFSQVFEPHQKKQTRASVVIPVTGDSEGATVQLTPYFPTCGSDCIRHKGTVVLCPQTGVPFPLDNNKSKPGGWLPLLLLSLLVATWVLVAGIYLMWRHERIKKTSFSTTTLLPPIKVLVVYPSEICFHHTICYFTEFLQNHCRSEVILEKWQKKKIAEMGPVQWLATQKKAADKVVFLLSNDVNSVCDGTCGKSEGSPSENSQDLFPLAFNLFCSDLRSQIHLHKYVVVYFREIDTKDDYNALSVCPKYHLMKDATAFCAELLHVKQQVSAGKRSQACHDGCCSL
In words: Flow cytometry, SM17 binding to HEK293 transfected with human IL-17RB. The following applies: SM17 1 μg/ml. As for the experimental part: HEK293 cells (ATCC, Manassas, VA) transfected either with full-length human or rhesus monkey IL-17RB (SinoBiological, Beijing, China) were examined for binding to SM17 following standard protocol for flow cytometry. Wild-type HEK293 stained with IgG4 isotype control (Sino Biological) was used as the negative control and for gating purpose. Briefly, HEK293 cells at a density of 3×10^5 cells were seeded into each well of a 6-well plate. On the next day, human or rhesus Il-17RB full length cDNA were first cloned into pCMV3-untagged expression plasmid through standard molecular cloning technique, and then expression plasmids for human or rhesus IL-17RB were transfected into HEK293 cells by lipofection (Lipofectamine 3000 reagent; Thermo Fisher Scientific). Transfected cells were trypsinized, harvested, and fixed with 4% paraformaldehyde (5 minutes). SM17, or human IgG4 control at 1 μg/ml in washing buffer (3% BSA in PBS) were added to the resuspend cells for incubation at RT for 30 min before Alexa Fluor® 647-conjugated goat anti-human IgG specific antibody (1:2000 dilution in washing buffer) (Jackson ImmunoResearch) was added for flow cytometry analysis using the BD FACSVerse cell analyzer (Becton Dickenson, Franklin Lakes, NJ).
For orientation: In flow cytometry, cells or beads pass a laser one at a time.

In assay [2] the test system is IL-2/IL-25-treated human PBMC. Briefly: IL-5 release from IL-2/IL-25-treated human PBMC. The following applies: SM17 0.16 ng/mL to 5 mg/mL; 10 unit/mL IL-2, 10 μg/mL IL-25; 72 hours; dose dependent. It counts as cell-based. The protocol:
PBMC (Ixcells, San Diego, CA) co-cultured with IL-2 and IL-25 (PeproTech, Cranbury, NJ) can lead to the release of IL-5, a cytokine known to exacerbate the conditions of asthma. Accordingly, the inhibitory effect of SM17 on IL-5 release from IL-2/IL-25-treated human PBMC was evaluated. Briefly, cryopreserved human PBMC were thawed and cultured in RPMI-1640 medium supplemented with 10% Fetal Bovine Serum (Thermo Fisher Scientific). Serially diluted SM17 at concentrations ranging from 0.16 ng/mL to 5 mg/mL were added to 4×10^5 of human PBMC in the presence of 10 unit/mL of IL-2 and 10 μg/mL of IL-25. Non-specific human IgG4 (SinoBiological) was used as the control antibody. Treated cells were incubated for 72 hours at 37° C., and the level of IL-5 release in the culture supernatant was measured by standard ELISA assay (R&D systems). […] Results are presented as means±SEM. One Way ANOVA, Dunnett's Multiple Comparison Test, *: P<0.05; **: P<0.01.

Assay [3] deals with T2, IL-17RB (Homo sapiens, UniProt Q9NRM6).
T2 construct: purchased R&D systems
T2 sequence (Q9NRM6 18-502): T1 sequence (Q9NRM6 18-502)
Briefly: Bio-Layer Interferometry (Octet), SM17 binding kinetics to human IL17RB. The following applies: trials 1 and 2. The protocol:
Bio-Layer Interferometry analysis (Octet ReD96 system, Sartorius) was employed to determine the binding affinity of SM17 against human and cynomolgus monkey IL17RB protein (R&D systems). Briefly, SM17 (20 μg/mL) was immobilized on biosensors via interactions with anti-human Fab CH1; serially diluted Cyno-IL17RB and Human-IL17RB (at a concentration of 158.7 nM, 79.4 nM and 39.7 nM, respectively) were subsequently added following standard operation protocols of the Octet ReD96 system to plot out the association and dissociation curve. Irrelevant antibody (SM03, anti-human CD22 chimeric IgG1 antibody, SinoMab BioScience Limited) was used as the control reference. Of note, the KD is within picomolar-single digit nanomolar range.
(BLI is a label-free optical method that tracks binding on a fibre tip over time.)

The target in assay [4] is T3, TSLP (Homo sapiens, UniProt Q969D9).
T3 construct: purchased R&D systems
In words: ELISA, antigen binding specificity of bsBp (TSLP). Also noted: key: −: no binding; +: weak; ++: moderate; +++: strong binding; N/A refers to no binding affinity. The settings on record: 33.5 nM; antigen coated at 2 μg/mL. The protocol: Binding specificities of bsBp were evaluated by standard ELISA assays. Briefly, ELISA strips were coated with the respective target antigens, including IL17RB, IL-33, or TSLP (R&D systems) at a final concentration of 2 μg/mL. Bispecific antibodies were added at 33.5 nM to ELISA strips coated with the desired antigen. After incubation under room temperature for 2 hours, ELISA strips were washed five times with PBS. […] No result is provided for SM17-human TSLPR as the yield was too low to be detected.
(In general: In an ELISA, binding on a coated surface is turned into a signal by an enzyme label.)

Assay [5] concerns Human PBMCs. Briefly: CCL17 release from human PBMC incubated with TSLP. Details: key to Intensity of specific cytokine inhibition, CCL-17: −: no inhibition; +: weak; ++: moderate; +++: strong inhibition. It counts as cell-based. The protocol: Human PBMCs (4×10^5 per group, Ixcells) were incubated with IL-2 (10 unit/mL, PeproTech) and various alarmin/alarmin combinations to mimic the pro-inflammatory cytokines release during allergic diseases. For IL-5 and IL-13 releases, PBMCs were incubated with IL-2 and three alarmins (all 10 ng/ml) for three days. For CCL17 release, PBMC was incubated with TSLP (10 ng/ml) for 1 day. For CCL8 and IFNγ releases, PBMCs were incubated with IL-12 (10 ng/ml, Sino Biological) and IL-33 (10 ng/ml) for 1 day. Cells were pretreated with SM17 (5 μg/ml) or IgG4 isotype control (5 μg/ml) for an hour before the addition of cytokines.
Supernatants were collected and the cytokine concentration were measured by ELISA kits (R&D systems). These established assays were used to test the potency of and SM17 and bsBps. […] Results were expressed in absolute amount in pg/ml.
SM17, three different SM17-anti-IL33 bsBps and three different SM17-anti-TSLP bsBps (all at 5 μg/ml) were added to human PBMC cultures under conditions that shall induce the release of IFNγ, CCL8, CCL17 and IL-5 as described in Example 11 above. The levels of different cytokines and chemotactic factors in supernatant obtained in induced PBMC were evaluated using standard ELISA methods.

For the substance “SM17: humanized anti-IL17RB monoclonal antibody, human IgG4 isotype; HC SEQ ID NO: 32, LC SEQ ID NO: 33”, the “binding of SM17 to hIL17RB-HEK293” value in assay [1] was 46%. Further, the “release of IL-5 from human PBMC induced with IL-2 and IL-25 (in words)” value in assay [2] is recorded as “suppressed the release of IL-5”. Moreover, the Ka in assay [3] is 222000 M⁻¹ s⁻¹ and 183000 M⁻¹ s⁻¹. Moreover, the “Intensity of specific antigen binding, TSLP coated on ELISA strips” value in assay [4] was “+”. For the same substance, the “Intensity of specific cytokine inhibition, CCL-17” value in assay [5] (5 μg/ml, human PBMC) is “−”. Moreover, the “CCL17 release (in words)” value in assay [5] (SM17 5 μg/ml, TSLP 10 ng/ml, 1 day, vs IgG4 isotype control) is “no inhibitory effects”.
